Measured values taken from the supplement of paper PMC9112550, “Optimization of the antimicrobial peptide Bac7 by deep mutational scanning” (BMC Biology, 2022).

tested on: Escherichia coli TOP10; experiment: shrunken log2 fold change of peptide-encoding DNA abundance (4.5 h post-induction vs induction); higher = less antimicrobial activity (less host growth inhibition); settings: time post-induction: 4.5 h; library: site-saturation at positions 5, 18, 19, 20
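Note: peptides expressed intracellularly from a pBAD plasmid library in pooled LB shake-flask culture, induced with 0.3% L-arabinose, DNA abundance read by NGS, three biological replicates, DESeq2 with apeglm shrinkage.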

Sequence | shrunken log2 fold change
RRIRLRPPRLPRPRPRPSWLPRP | -0.532
RRIRVRPPRLPRPRPRPEWTPRP | 0.171
RRIRMRPPRLPRPRPRPRGVPRP | 1.23
RRIRFRPPRLPRPRPRPPGYPRP | 0.0848
RRIRRRPPRLPRPRPRPSYTPRP | -0.227
RRIRPRPPRLPRPRPRPDEHPRP | -0.205
RRIRIRPPRLPRPRPRPNVDPRP | -0.272
RRIRNRPPRLPRPRPRPWNPPRP | -0.0102
RRIRVRPPRLPRPRPRPKNGPRP | -0.129
RRIRVRPPRLPRPRPRPPGCPRP | 0.232
RRIRPRPPRLPRPRPRPDKTPRP | 0.015
RRIRLRPPRLPRPRPRPLIGPRP | 0.0224
RRIRYRPPRLPRPRPRPCRFPRP | -0.241
RRIRGRPPRLPRPRPRPRYCPRP | 0.295
RRIRYRPPRLPRPRPRPKCKPRP | -0.161
RRIRHRPPRLPRPRPRPPAKPRP | 0.539
RRIRPRPPRLPRPRPRPKKIPRP | 0.0064
RRIRFRPPRLPRPRPRPQHTPRP | -0.164
RRIRRRPPRLPRPRPRPTAPPRP | 0.583
RRIRTRPPRLPRPRPRPCVRPRP | 0.116
RRIRMRPPRLPRPRPRPYSVPRP | 0.0409
RRIRMRPPRLPRPRPRPNSIPRP | -0.283
RRIRQRPPRLPRPRPRPQRAPRP | 0.224
RRIRQRPPRLPRPRPRPECQPRP | -0.0746
RRIRCRPPRLPRPRPRPQVCPRP | -0.203

Sequence | shrunken log2 fold change
RRIRSRPPRLPRPRPRPLCNPRP | -0.278
RRIRLRPPRLPRPRPRPYWDPRP | -0.195
RRIRARPPRLPRPRPRPYVKPRP | -0.539
RRIRKRPPRLPRPRPRPHFCPRP | -0.167
RRIRQRPPRLPRPRPRPCNFPRP | 0.0393
RRIRGRPPRLPRPRPRPTDCPRP | 0.275
RRIRYRPPRLPRPRPRPMYVPRP | -0.0549
RRIRDRPPRLPRPRPRPCVLPRP | 0.0171
RRIRIRPPRLPRPRPRPCADPRP | -0.289
RRIRMRPPRLPRPRPRPHERPRP | 1.04
RRIRKRPPRLPRPRPRPLNRPRP | -0.0492
RRIRWRPPRLPRPRPRPRWPPRP | 0.598
RRIRTRPPRLPRPRPRPICEPRP | 0.0143
RRIRLRPPRLPRPRPRPEAGPRP | 0.375
RRIRSRPPRLPRPRPRPHLIPRP | -0.303
RRIRFRPPRLPRPRPRPNMWPRP | -0.485
RRIRPRPPRLPRPRPRPYGEPRP | 0.0864
RRIRGRPPRLPRPRPRPHEQPRP | 0.0117
RRIRERPPRLPRPRPRPNVMPRP | -0.403
RRIRQRPPRLPRPRPRPMRFPRP | 0.0202
RRIRVRPPRLPRPRPRPMGIPRP | 0.134
RRIRDRPPRLPRPRPRPHWRPRP | 0.0876
RRIRERPPRLPRPRPRPFQHPRP | -0.252
RRIRWRPPRLPRPRPRPYTIPRP | -0.606
RRIRHRPPRLPRPRPRPKAYPRP | 0.0124

Sequence | shrunken log2 fold change
RRIRGRPPRLPRPRPRPGQHPRP | 0.0185
RRIRQRPPRLPRPRPRPQNDPRP | 0.119
RRIRHRPPRLPRPRPRPDYRPRP | -0.127
RRIRNRPPRLPRPRPRPTYDPRP | -0.396
RRIRGRPPRLPRPRPRPWDYPRP | 0.183
RRIRGRPPRLPRPRPRPEAAPRP | 3.27
RRIRRRPPRLPRPRPRPAKDPRP | 0.185
RRIRGRPPRLPRPRPRPESRPRP | 0.831
RRIRNRPPRLPRPRPRPLIWPRP | 0.0774
RRIRERPPRLPRPRPRPRDIPRP | -0.0401
RRIRHRPPRLPRPRPRPTTFPRP | 0.0797
RRIRGRPPRLPRPRPRPLCGPRP | 0.78
RRIRWRPPRLPRPRPRPMETPRP | 1.73
RRIRQRPPRLPRPRPRPSMAPRP | -0.135
RRIRQRPPRLPRPRPRPQAVPRP | 0.00748
RRIRARPPRLPRPRPRPFCVPRP | 0.19
RRIRFRPPRLPRPRPRPQQDPRP | -0.24
RRIRCRPPRLPRPRPRPKHEPRP | -0.000422
RRIRFRPPRLPRPRPRPDKMPRP | 0.0125
RRIRNRPPRLPRPRPRPRIVPRP | -0.191
RRIRRRPPRLPRPRPRPKFDPRP | 0.101
RRIRPRPPRLPRPRPRPHCLPRP | -0.374
RRIRIRPPRLPRPRPRPLFLPRP | -0.653
RRIRLRPPRLPRPRPRPFWQPRP | -0.0702
RRIRYRPPRLPRPRPRPQHVPRP | -1.14
